Laboratory results taken from US20250361288A1 (Gilead, published 2025).

T1: mouse HVEM extracellular domain fused with an Fc fragment at the C-terminus (mouse, UniProt Q80WM9 39-206, limits assumed)
T1 construct: extracellular domain; Bought; also called mHVEM; not shown: Fc fragment at the C-terminus
T1 sequence (looked up): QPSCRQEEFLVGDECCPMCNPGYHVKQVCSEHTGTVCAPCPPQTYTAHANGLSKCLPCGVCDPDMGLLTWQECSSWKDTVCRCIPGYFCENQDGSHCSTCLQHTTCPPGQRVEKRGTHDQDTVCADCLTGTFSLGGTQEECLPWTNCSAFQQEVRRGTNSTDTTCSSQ

T2: human HVEM extracellular domain fused with an Fc fragment at the C-terminus (human, UniProt Q92956 39-202)
T2 construct: extracellular domain; Bought; also called hHVEM; not shown: Fc fragment at the C-terminus
T2 sequence (looked up): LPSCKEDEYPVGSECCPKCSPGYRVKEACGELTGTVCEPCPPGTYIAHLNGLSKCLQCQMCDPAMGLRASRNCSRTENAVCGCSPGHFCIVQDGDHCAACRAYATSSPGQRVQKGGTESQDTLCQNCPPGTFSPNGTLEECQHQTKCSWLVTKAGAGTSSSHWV

B1: LIGHT-10 (ligand)
chain: DGPAGSWEQLIQERRSHEVNPAAHLTGANSSLTGSGGPLLWETQLGLAFLRGLSYHDGALVVTKAGYYYIYSKVQLSGVGCPLGLASPITHGLYKRTPRYPEELELLVSQQSPCGRATSSSRVWWDSSFLGGVVHLEAGEKVVVRVSDERLVRLRDGTRSYFGAFMV
notes: Printed mutations: G150S, T161P, L220S; Soluble protein carries an N-terminal His tag
B2: LIGHT-46 (ligand)
chain: DGPAGSWEQLIQERRSHEVNPAAHLTGANSSLTGSGGPLLWETQLGLAFLRGMSYHDGALVVTKAGYYYIYSKVQLGGVGCPLGLASTITHGLYKRTPRYPEELELLVSQQSPCGRATSSSRVWWDSSFLGGVVHLEAGEEVVVRVLDERLVRLRDGTRSYFGAFMV
notes: Printed mutations: L126M, K214E; Soluble protein carries an N-terminal His tag
B3: LIGHT-21 (ligand)
chain: DGPAGSWEQLIQERRSHEVNPAAHLTGANSSLTGSGGPLLWETQLGLAFLRGLSYHDGALVVTKAGYYYIYSKVQLGGVGCPLGLAGPITHGLYKRTPRYPEELELLVSQQSPCGRATSSSRVWWDSSFLGGVVHLEAGEKVVVRVTDERLVRLRDGTRSYFGAFMV
notes: Printed mutations: S160G, T161P, L220T; Soluble protein carries an N-terminal His tag
B4: LIGHT-15 (ligand)
chain: DGPAGSWEQLIQERRSHEVNPAAHLTGANSSLTGSGGPLLWETELGLAFLRGLSYHDGALVVTKAGYYYIYSKVQLGGVGCPLGLASTITHGLYKRTPRYPKELELLVSQQSPCGRATSSSRVWWDSSFLGGVVHLEAGEEVVVRVLDERLVRTRDGTRSYFGAFMV
notes: Printed mutations: Q117E, E175K, K214E, L227T; Soluble protein carries an N-terminal His tag
B5: LIGHT-48 (ligand)
chain: DGPAGSWEQLIQERRSHEVNPAAHLTGANSSLTGSGGPLLWETQLGPAFLRGLSYHDGALVVTKAGYYYIYSKVQLGGVGCPLGLASTITHGLYKRTPRYPEELELLVSQQSPCGRATSSSRVWWDSSFLGGVVHLEAGEKVVVRVRDERLVRLRDGTRSYFGAFMV
notes: Printed mutations: L120P, L220R; Soluble protein carries an N-terminal His tag
B6: LIGHT-30 (ligand)
chain: DGPAGSWEQLIQERRSHEVNPAAHLTGANSSLTGSGGPLLWETQLGLAFLRGLSYHDGALVVTKAGYYYIYSKVQLGGVGCPLGLARNITHGLYKRTPRYPEELELLVSQQSPCGRATSSSRVWWDSSFLGGVVHLEAGEKVVVRVSDERLVRLRDGTRSYFGAFMV
notes: Printed mutations: S160R, T161N, L220S; Soluble protein carries an N-terminal His tag
B7: LIGHT-19 (ligand)
chain: DGPAGSWEQLIQERRSHEVNPAAHLTGANSSLTGSGGPLLWETQLGLAFLRGLSYHDGALVVSKAGYYYIYSKVQLGGVGCPPGLAGTITHGLYKRTPRYPEELELLVSQQSPCGRATSSSRVWWDSSFLGGVVHLEAGEKVVVRVMDERLVRLRDGTRSYFGAFMV
notes: Soluble protein carries an N-terminal His tag
B8: LIGHT-22 (ligand)
chain: DGPAGSWEQLIQERRSHEVNPAAHLTGANSSLTGSGGPLLWETQLGLAFLRGLSYHDGALVVTKAGYYYIYSKVQLGGVGCPLGLAGSITHGLYKRTPRYPEELELLVSQQSPCGRATSSSRVWWDSSFLGGVVHLEAGEKVVVRVSDERLVRLRDGTRSYFGAFMV
notes: Printed mutations: S160G, T161S, L220S; Soluble protein carries an N-terminal His tag
B9: LIGHT-23 (ligand)
chain: DGPAGSWEQLIQERRSHEVNPAAHLTGANSSLTGSGGPLLWETQLGLAFLRGLSYHDGALVVTKAGYYYIYSKVQLGGVGCPLGLAGTITHGLYKRTPRYPEELELLVSQQSPCGRATSSSRVWWDSSFLGGVVHLEAGEKVVVRVSDERLVRLRDGTRSYFGAFMV
notes: Printed mutations: S160G, L220S; Soluble protein carries an N-terminal His tag
B10: LIGHT-14 (ligand)
chain: DGPAGSWEQLIQERRSHEVNPAAHLTGANSSLTGSGGPLLWESQLGLAFLRGLSYHDGALVVTKAGYYYIYSKVQLGGVGCPLGQASTITHGMYKRTPRYPEELELLVSQQSPCGRATSSSRVWWDSSFLGGVVHLEAGEKVVVRVLDERLVRLRDGTRSYFGAFMV
notes: as for B7
B11: LIGHT-33 (ligand)
chain: DGPAGSWEQLIQERRSHEVNPAAHLTGANSSLTGSGGPLLWETQLGLAFLRGLSYHDGALVVTKAGYYYIYSKVQLGGVGCPLGLASPITHGLYKRTPRYPEELELLVSQQSPCGRATSSSRVWWDSSFLGGVVHLEAGEKVVVRVSDERLVRLRDGTRSYFGAFMV
notes: Printed mutations: T161P, L220S; Soluble protein carries an N-terminal His tag
B12: LIGHT-20 (ligand)
chain: DGPAGSWEQLIQERRSHEVNPAAHLTGANSSLTGSGGPLLWETQLGLAFLRGLSYHDGALVVTKAGYYYIYSKVQLGGVGCPLGLAATITHGLYKRTPRYPEELELLVSQQSPCGRATSSSRVWWDSSFLGGVVHLEAGEKVVVRVSDDRLVRLRDGTRSYFGAFMV
notes: Printed mutations: S160A, L220S, E222D; Soluble protein carries an N-terminal His tag
B13: LIGHT-16 (ligand)
chain: DGPAGSWEQLIQERRSHEVNPAAHLTGANSSLTGSGGPLLWETHLGLAFLRGLSYHDGALVVTKAGYYYIYSKVQLGGVGCPLGMASTITHGLYKRTPRYPEELELLVSQQSPCGRATSSSRVWWDSSFLGGVVHLEAGDKVVVRVLDERLVRLRDGTRSYFGAFMV
notes: Printed mutations: Q117H, L158M, E213D; Soluble protein carries an N-terminal His tag
B14: LIGHT-18 (ligand)
chain: DGPAGSWEQLIQERRSHEVNPAAHLTGANSSLTGSGGPLLWETQLGLAFLRGLSYHDGALVITKAGYYYIYSKVQLGGVGCPLGQASTITHGLYKRTPRYPEELELLVSQQSPCGRATSSSRVWWDSSFLGGVVHLEAGEEVVVRVLDKRLVRLRDGTRSYFGAFMV
notes: as for B7
B15: LIGHT-17 (ligand)
chain: DGPAGSWEQLIQERRSHEVNPAAHLTGANSSLTGSGGPLLWETNLGLAFLRGLSYHDGALVVTKAGYYYIYSKVQLGGVGCPLGLASTITHGLYKRTPRYPEELELLVSQQSPCGRATSSSRVWWDSSFLGGVVYLEAGEKVVVRVLDERLVRLRDGTRSYFGAFMV
notes: Printed mutations: H208Y, Q117N; Soluble protein carries an N-terminal His tag
B16: LIGHT-40 (ligand)
chain: DGPAGSWEQLIQERRSHEVNPAAHLTGANSSLTGSGGPLLWETQLGLAFLRGLSYHDGALVVTKAGYYYIYSKVQLGGVGCPPGLASTITHGLYKRTPRYPEELELLVSQQSPCGRATSSSRVWWDSSFLGGVVYLEAGEKVVVRVLDERLVRLRDGTRSYFGAFMV
notes: Printed mutations: L156P, H208Y; Soluble protein carries an N-terminal His tag

Legend:
[1] = target: T1, mouse HVEM extracellular domain fused …; assay: phage ELISA
Description: (§1) Individual clones from the fourth selection round were grown in 96-well deep well blocks in 100 μl of 2YT broth supplemented with 50 μg/ml ampicillin at 37° C. and 220 rpm for 5 hours. Then, 5 μl of helper phages were added to each well and incubated at 37° C. for 30 minutes. After centrifuging at 3,000 rpm for 10 minutes, the cells were resuspended and grown overnight in 150 μl/well of 2YT broth supplemented with 50 μg/ml ampicillin and 50 μg/ml kanamycin.
(§2) For the ELISA screening, 96-well ELISA plates were coated with target proteins (1 μg/ml in PBS) at 4° C. overnight and then blocked with 2% BSA for 2 hours at room temperature. The supernatant containing phage particles was added to the plates and incubated at room temperature for 1 hour. After incubation, the plates were washed five times with PBST. HRP (horseradish peroxidase) conjugated anti-M13 antibody (Sino Biological, China) was added to the wells and incubated at room temperature for 1 hour. Following another round of washing five times with PBST, 50 μl of TMB (3,3′, 5,5″-tetramethylbenzidine, #34029, ThemoFisher) was added to each well. After 5 minutes, the reaction was stopped by adding 50 μl stop solution (#C1058, Solarbio, China). The absorbance at 450 nm (OD450) was measured using a plate reader (SpectraMax M5, Molecule Devices). Wells coated with BSA were used as negative controls. Phage clones with an ELISA score ratio (target/BSA)>3 were considered positive clones.

[2] = target: T3, human LTβR extracellular domain fused with an Fc fragment at the C-terminus (human, UniProt P36941 31-227); assay: ELISA on coated target-Fc
T3 construct: extracellular domain; Bought; also called hLTβR; not shown: Fc fragment at the C-terminus
T3 sequence (P36941 31-227): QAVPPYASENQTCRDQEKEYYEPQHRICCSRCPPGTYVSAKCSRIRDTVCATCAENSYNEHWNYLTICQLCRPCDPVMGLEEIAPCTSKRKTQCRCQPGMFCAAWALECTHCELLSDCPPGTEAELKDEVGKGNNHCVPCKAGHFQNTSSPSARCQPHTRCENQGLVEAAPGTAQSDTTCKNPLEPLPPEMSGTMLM
Description: (§3) Nunc MaxiSorp 96-well plates (Thermofisher) were coated with target proteins (1 μg/ml), and then blocked with 2% BSA-PBS buffer for one hour. Serial dilutions of the LIGHT muteins were added with a maximum concentration of 200 ng/ml. The plates were incubated for one hour, washed four times with PBST, and then incubated with mouse anti-His tag antibody (#105327, Sino Biological) for 1 hour. The plates were further incubated with HRP-conjugated goat anti-mouse secondary antibody (#SSA006, Sino Biological) before being washed three times with PBST and treated with TMB substrate (#34029, ThermoFisher). The plates were read at 450 nm on a SpectraMax M5 microplate reader (Molecule Devices). The ELISA results were analyzed using GraphPad Prism 9.0 software and the EC50s (half maximal effective concentration) were summarized in Table 5-1 and Table 5-2.

[3] = target: T4, mouse LTβR extracellular domain fused with an Fc fragment at the C-terminus (mouse, UniProt P50284 31-223); assay: ELISA on coated target-Fc
T4 construct: extracellular domain; Bought; also called mLTβR; not shown: Fc fragment at the C-terminus
T4 sequence (P50284 31-223): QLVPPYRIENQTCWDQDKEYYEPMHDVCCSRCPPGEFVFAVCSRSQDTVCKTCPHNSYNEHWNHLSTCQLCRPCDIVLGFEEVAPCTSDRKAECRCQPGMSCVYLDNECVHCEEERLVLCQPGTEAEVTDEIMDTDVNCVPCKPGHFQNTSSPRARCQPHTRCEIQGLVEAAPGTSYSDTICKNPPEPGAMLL
Description: as §3

[4] = target: T2, human HVEM extracellular domain fused …; assay: ELISA on coated target-Fc
Description: as §3

[5] = target: T4, mouse LTβR extracellular domain fused …; assay: phage ELISA
Description: as §1, §2

[6] = target: T2, human HVEM extracellular domain fused …; assay: phage ELISA
Description: as §1, §2

| Binder | binding result [1] | EC50 [2] [µg/mL] | EC50 [3] [µg/mL] | EC50 [4] [µg/mL] | binding result [5] | binding result [6] | binding result [3] |
| --- | --- | --- | --- | --- | --- | --- | --- |
| B1 | binds | 0.0441 | 0.0804 | 0.0467 | – | – | – |
| B2 | binds | 0.0675 | – | 0.0978 | binds | – | – |
| B3 | binds | 0.0715 | 0.134 | 0.0422 | – | – | – |
| B4 | binds | 0.0748 | 0.139 | 0.0597 | – | – | – |
| B5 | binds | 0.756 | 0.42 | – | – | binds | – |
| B6 | binds | – | – | 0.157 | – | – | – |
| B7 | – | – | 0.468 | 0.0681 | – | – | – |
| B8 | binds | 0.0686 | 0.0624 | 0.0471 | – | – | – |
| B9 | binds | 0.0892 | 0.0916 | 0.0588 | – | – | – |
| B10 | – | – | 0.0249 | 0.03 | – | – | – |
| B11 | binds | 0.0612 | – | 0.0256 | binds | – | – |
| B12 | binds | 0.0521 | – | 0.0496 | – | – | binds |
| B13 | binds | 0.16 | – | 0.0738 | – | – | binds |
| B14 | – | 0.0894 | 0.0413 | 0.0447 | – | – | – |
| B15 | binds | 0.0805 | 0.0442 | 0.0511 | – | – | – |
| B16 | binds | 0.0959 | – | 0.0503 | binds | – | – |
